Test results: publication PMC3326351 (International Journal of Oncology, 2011)

Biological target: the molecule itself
Experiment: non-reducing SDS-PAGE and immunoblot

B1: His-tagged MUC1-C cytoplasmic domain (domain or fragment, human, UniProt P15941 1182-1255, looked up)
chain: AVCQCRRKNYGQLDIFPARDTYHPMSEYPTYHTHGRYVPPSSTDRSPYEKVSAGNGGSSLSYTNPAVAATSANL
- binding result: binds
